T1: human FcγRIIaR extracellular domain with C-terminal His-tag (human, UniProt P12318 34-217)
T1 construct: also called human FcgRIIaR; FcγRIIa (type R)
T1 chain: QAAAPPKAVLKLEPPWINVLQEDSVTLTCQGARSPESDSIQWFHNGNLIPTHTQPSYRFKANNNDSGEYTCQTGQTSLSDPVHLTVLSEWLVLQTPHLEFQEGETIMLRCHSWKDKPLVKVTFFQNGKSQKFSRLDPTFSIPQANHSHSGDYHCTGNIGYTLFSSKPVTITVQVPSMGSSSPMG

B1: M103205H795-MY516/M103202L889-SK1 (antibody, human IgG1, kappa)
heavy: QVTLKESGPVLVKPTETLTLTCTVSGIDLSHDDISWVRQAPGKGLEWVGIISYAGSTYYASWAKGRLTISKDTSKNQVVLTMTNMDPVDTATYYCARGVPAYSHGGDLWGQGTLVTVSSASTKGPSVFPLAPSSKSTSGGTAALGCLVKDYFPEPVTVSWNSGALTSGVHTFPAVLQSSGLYSLSSVVTVPSSSLGTQTYICNVNHKPSNTKVDKKVEPKSCDKTHTCPPCPAPELLTGPVVFLFPPKPKDTLMISRTPEVTCVVVDVSDEDPEVKFNWYVDGVEVHNAKTKPREELYNLTYRVVSVLTVLHQDWLNGKEYKCKVSNKALPKPIEKTISKAKGQPREPQVYTLPPSREEMTKNQVSLTCLVKGFYPSDIAVEWESNGQPENNYKTTPPVLDSDGSFFLYSKLTVDKSRWQQGNVFSCSVMHEALHNHYTQKSLSLSP
light: DIVMTQSPATLSLSPGERATLSCTSSQSVYHANWLSWFQQKPGQPPKLLIYWASTLAYGVPSRFSGSGSGTDFTLTISSLQPEDAATYYCAGGYGGGRYAFGQGTKVEIKRTVAAPSVFIFPPSDEQLKSGTASVVCLLNNFYPREAKVQWKVDNALQSGNSQESVTEQDSKDSTYSLSSTLTLSKADYEKHKVYACEVTHQGLSSPVTKSFNRGEC
notes: Substitutions introduced into M103205H795-SG1, expressed with M103202L889-SK1 as light chain; EU numbering
B2: M103205H795-MY521/M103202L889-SK1 (antibody, human IgG1, kappa)
heavy: QVTLKESGPVLVKPTETLTLTCTVSGIDLSHDDISWVRQAPGKGLEWVGIISYAGSTYYASWAKGRLTISKDTSKNQVVLTMTNMDPVDTATYYCARGVPAYSHGGDLWGQGTLVTVSSASTKGPSVFPLAPSSKSTSGGTAALGCLVKDYFPEPVTVSWNSGALTSGVHTFPAVLQSSGLYSLSSVVTVPSSSLGTQTYICNVNHKPSNTKVDKKVEPKSCDKTHTCPPCPADELLTGPSVFLFPPKPKDTLMISRTPEVTCVVVDVSDEDPEVKFNWYVDGVEVHNAKTKPREELYNSTYRVVSVLTVLHQDWLNGKEYKCKVSNKALPKPIEKTISKAKGQPREPQVYTLPPSREEMTKNQVSLTCLVKGFYPSDIAVEWESNGQPENNYKTTPPVLDSDGSFFLYSKLTVDKSRWQQGNVFSCSVMHEALHNHYTQKSLSLSP
light: DIVMTQSPATLSLSPGERATLSCTSSQSVYHANWLSWFQQKPGQPPKLLIYWASTLAYGVPSRFSGSGSGTDFTLTISSLQPEDAATYYCAGGYGGGRYAFGQGTKVEIKRTVAAPSVFIFPPSDEQLKSGTASVVCLLNNFYPREAKVQWKVDNALQSGNSQESVTEQDSKDSTYSLSSTLTLSKADYEKHKVYACEVTHQGLSSPVTKSFNRGEC
notes: as for B1
B3: M103205H795-MY522/M103202L889-SK1 (antibody, human IgG1, kappa)
heavy: QVTLKESGPVLVKPTETLTLTCTVSGIDLSHDDISWVRQAPGKGLEWVGIISYAGSTYYASWAKGRLTISKDTSKNQVVLTMTNMDPVDTATYYCARGVPAYSHGGDLWGQGTLVTVSSASTKGPSVFPLAPSSKSTSGGTAALGCLVKDYFPEPVTVSWNSGALTSGVHTFPAVLQSSGLYSLSSVVTVPSSSLGTQTYICNVNHKPSNTKVDKKVEPKSCDKTHTCPPCPGPELLTGPVVFLFPPKPKDTLMISRTPEVTCVVVDVSDEDPEVKFNWYVDGVEVHNAKTKPREEQYNSTYRVVSVLTVLHQDWLNGKEYKCKVSNKALPKPIEKTISKAKGQPREPQVYTLPPSREEMTKNQVSLTCLVKGFYPSDIAVEWESNGQPENNYKTTPPVLDSDGSFFLYSKLTVDKSRWQQGNVFSCSVMHEALHNHYTQKSLSLSP
light: DIVMTQSPATLSLSPGERATLSCTSSQSVYHANWLSWFQQKPGQPPKLLIYWASTLAYGVPSRFSGSGSGTDFTLTISSLQPEDAATYYCAGGYGGGRYAFGQGTKVEIKRTVAAPSVFIFPPSDEQLKSGTASVVCLLNNFYPREAKVQWKVDNALQSGNSQESVTEQDSKDSTYSLSSTLTLSKADYEKHKVYACEVTHQGLSSPVTKSFNRGEC
notes: as for B1
B4: M103205H795-MY524/M103202L889-SK1 (antibody, human IgG1, kappa)
heavy: QVTLKESGPVLVKPTETLTLTCTVSGIDLSHDDISWVRQAPGKGLEWVGIISYAGSTYYASWAKGRLTISKDTSKNQVVLTMTNMDPVDTATYYCARGVPAYSHGGDLWGQGTLVTVSSASTKGPSVFPLAPSSKSTSGGTAALGCLVKDYFPEPVTVSWNSGALTSGVHTFPAVLQSSGLYSLSSVVTVPSSSLGTQTYICNVNHKPSNTKVDKKVEPKSCDKTHTCPPCPGPELLTGPSVFLFPPKPKDTLMISRTPEVTCVVVDVSDEDPEVKFNWYVDGVEVHNAKTKPREELYNSTYRVVSVLTVLHQDWLNGKEYKCKVSNKALPKPIEKTISKAKGQPREPQVYTLPPSREEMTKNQVSLTCLVKGFYPSDIAVEWESNGQPENNYKTTPPVLDSDGSFFLYSKLTVDKSRWQQGNVFSCSVMHEALHNHYTQKSLSLSP
light: DIVMTQSPATLSLSPGERATLSCTSSQSVYHANWLSWFQQKPGQPPKLLIYWASTLAYGVPSRFSGSGSGTDFTLTISSLQPEDAATYYCAGGYGGGRYAFGQGTKVEIKRTVAAPSVFIFPPSDEQLKSGTASVVCLLNNFYPREAKVQWKVDNALQSGNSQESVTEQDSKDSTYSLSSTLTLSKADYEKHKVYACEVTHQGLSSPVTKSFNRGEC
notes: as for B1
B5: M103205H795-MY523/M103202L889-SK1 (antibody, human IgG1, kappa)
heavy: QVTLKESGPVLVKPTETLTLTCTVSGIDLSHDDISWVRQAPGKGLEWVGIISYAGSTYYASWAKGRLTISKDTSKNQVVLTMTNMDPVDTATYYCARGVPAYSHGGDLWGQGTLVTVSSASTKGPSVFPLAPSSKSTSGGTAALGCLVKDYFPEPVTVSWNSGALTSGVHTFPAVLQSSGLYSLSSVVTVPSSSLGTQTYICNVNHKPSNTKVDKKVEPKSCDKTHTCPPCPGPELLTGPVVFLFPPKPKDTLMISRTPEVTCVVVDVSDEDPEVKFNWYVDGVEVHNAKTKPREELYNSTYRVVSVLTVLHQDWLNGKEYKCKVSNKALPKPIEKTISKAKGQPREPQVYTLPPSREEMTKNQVSLTCLVKGFYPSDIAVEWESNGQPENNYKTTPPVLDSDGSFFLYSKLTVDKSRWQQGNVFSCSVMHEALHNHYTQKSLSLSP
light: DIVMTQSPATLSLSPGERATLSCTSSQSVYHANWLSWFQQKPGQPPKLLIYWASTLAYGVPSRFSGSGSGTDFTLTISSLQPEDAATYYCAGGYGGGRYAFGQGTKVEIKRTVAAPSVFIFPPSDEQLKSGTASVVCLLNNFYPREAKVQWKVDNALQSGNSQESVTEQDSKDSTYSLSSTLTLSKADYEKHKVYACEVTHQGLSSPVTKSFNRGEC
notes: as for B1
B6: M103205H795-MY520/M103202L889-SK1 (antibody, human IgG1, kappa)
heavy: QVTLKESGPVLVKPTETLTLTCTVSGIDLSHDDISWVRQAPGKGLEWVGIISYAGSTYYASWAKGRLTISKDTSKNQVVLTMTNMDPVDTATYYCARGVPAYSHGGDLWGQGTLVTVSSASTKGPSVFPLAPSSKSTSGGTAALGCLVKDYFPEPVTVSWNSGALTSGVHTFPAVLQSSGLYSLSSVVTVPSSSLGTQTYICNVNHKPSNTKVDKKVEPKSCDKTHTCPPCPADELLTGPVVFLFPPKPKDTLMISRTPEVTCVVVDVSDEDPEVKFNWYVDGVEVHNAKTKPREELYNSTYRVVSVLTVLHQDWLNGKEYKCKVSNKALPKPIEKTISKAKGQPREPQVYTLPPSREEMTKNQVSLTCLVKGFYPSDIAVEWESNGQPENNYKTTPPVLDSDGSFFLYSKLTVDKSRWQQGNVFSCSVMHEALHNHYTQKSLSLSP
light: DIVMTQSPATLSLSPGERATLSCTSSQSVYHANWLSWFQQKPGQPPKLLIYWASTLAYGVPSRFSGSGSGTDFTLTISSLQPEDAATYYCAGGYGGGRYAFGQGTKVEIKRTVAAPSVFIFPPSDEQLKSGTASVVCLLNNFYPREAKVQWKVDNALQSGNSQESVTEQDSKDSTYSLSSTLTLSKADYEKHKVYACEVTHQGLSSPVTKSFNRGEC
notes: as for B1

Target: T1, human FcγRIIaR extracellular domain …
Assay: SPR (BIACORE); KD of SG1 / KD of variant;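 further: relative to parent M103205H795-SG1 carrying the SG1 human heavy chain constant region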

Binder | KD fold (SG1 = 1)
B1 | 12.9 fold
B2 | 3.3 fold
B3 | 6.5 fold
B4 | 3.9 fold
B5 | 3.7 fold
B6 | 3.3 fold

Reference: US20200317768A1 (published 2020)
